Results on 52 substances are retold here after paper PMC10333884, “Large‐scale phosphomimetic screening identifies phospho‐modulated motif‐based protein interactions” (Molecular Systems Biology, 2023).

One assay has as its target GABARAPL2 (human) (UniProt P60520). Description: fluorescence polarisation. In general terms: In fluorescence polarisation assays a small probe gives low polarisation when free and higher when bound to something large.
In the next assay the target is MAP1LC3B (human) (UniProt Q9GZQ8). As to the kind of experiment: fluorescence polarisation; displacement of a FITC-labelled probe peptide (5 nM in the measurement) from the protein domain (1-2 fold over the probe's KD) by a dilution series of unlabelled peptide; room temperature; 50 mM sodium phosphate pH 7.4; KD calculated from the displacement curve; for KPNA4 ARM one probe for each pocket.

A further assay deals with AP2 μ2 (human). The assay is described as above.
The target of another assay is KPNA4 ARM (human). The assay is described as above.
The next assay has as its target SNX27 PDZ (human) (UniProt Q96L92). The assay is described as above.
The next assay has as its target RANBP2 RanBD4 (human). Described as above.
The target in assay [1] is PDCD6IP Alix V domain (human). The assay is described as above.
For the next assay, the target named is TSG101 UEV (human) (UniProt Q99816). The assay is described as above.
The target in the next assay is GGA1 VHS (human) (UniProt Q9UJY5). Described as above.
GGA1 VHS (human), sequence (Q9UJY5 17-147): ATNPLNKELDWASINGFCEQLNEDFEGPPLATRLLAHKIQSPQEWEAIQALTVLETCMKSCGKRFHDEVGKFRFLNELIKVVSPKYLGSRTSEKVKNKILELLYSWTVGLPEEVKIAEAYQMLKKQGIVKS

TSG101 UEV (human), sequence (Q99816 2-145): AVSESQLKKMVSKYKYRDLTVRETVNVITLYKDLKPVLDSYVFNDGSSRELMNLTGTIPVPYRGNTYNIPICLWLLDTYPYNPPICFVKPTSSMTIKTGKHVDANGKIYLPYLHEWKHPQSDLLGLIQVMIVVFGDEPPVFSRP
GABARAPL2 (human), sequence (P60520 whole entry, the tested form may be a part): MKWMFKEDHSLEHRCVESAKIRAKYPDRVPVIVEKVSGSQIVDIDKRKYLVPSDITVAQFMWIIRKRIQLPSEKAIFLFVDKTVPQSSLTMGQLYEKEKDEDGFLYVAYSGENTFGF
DAXX_(606–616), phosphomimetic (E), sequence (Q9UER7 whole entry, looked up, tested part not stated): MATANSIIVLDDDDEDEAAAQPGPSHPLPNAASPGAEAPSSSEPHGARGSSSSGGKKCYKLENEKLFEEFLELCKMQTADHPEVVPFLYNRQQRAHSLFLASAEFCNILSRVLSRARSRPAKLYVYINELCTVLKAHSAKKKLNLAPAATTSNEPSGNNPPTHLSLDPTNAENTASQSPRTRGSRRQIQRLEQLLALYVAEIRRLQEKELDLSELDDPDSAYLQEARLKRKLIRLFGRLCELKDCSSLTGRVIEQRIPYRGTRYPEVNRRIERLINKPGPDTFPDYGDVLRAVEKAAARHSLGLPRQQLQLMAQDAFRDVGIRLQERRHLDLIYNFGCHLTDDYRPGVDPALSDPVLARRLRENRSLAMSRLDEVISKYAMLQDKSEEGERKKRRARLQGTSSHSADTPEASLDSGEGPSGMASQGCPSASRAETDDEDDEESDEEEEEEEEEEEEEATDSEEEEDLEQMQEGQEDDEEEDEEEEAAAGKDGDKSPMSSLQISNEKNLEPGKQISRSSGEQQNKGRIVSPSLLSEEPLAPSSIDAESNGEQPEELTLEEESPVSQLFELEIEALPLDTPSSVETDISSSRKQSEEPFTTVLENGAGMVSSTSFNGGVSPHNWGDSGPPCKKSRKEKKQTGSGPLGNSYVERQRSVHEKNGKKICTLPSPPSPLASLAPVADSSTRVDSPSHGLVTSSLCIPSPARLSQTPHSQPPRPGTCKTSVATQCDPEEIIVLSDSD
DAXX_(606–616), wild‐type, sequence (Q9UER7 whole entry, looked up, tested part not stated): as above
DAXX_(606–616), phosphorylated (pS), sequence (Q9UER7 whole entry, looked up, tested part not stated): as above

As to “ATG4C_(444–458), phosphorylated (pS) (from UniProt Q96DT6 444-458) (peptide)”, the Kd (usually a measure of binding affinity in units of concentration) is 0.1 µM in the assay with GABARAPL2 (human) and 1.9 µM with MAP1LC3B (human).
Take “BAIAPL1_(392–407), phosphomimetic (E) (from UniProt Q9UHR4 392-407) (peptide)”: in the assay with AP2 μ2 (human), the Kd was 0.49 µM.
As to “BAIAPL1_(392–407), phosphorylated (pS) (from UniProt Q9UHR4 392-407) (peptide)”, the Kd with AP2 μ2 (human) was 0.93 µM.
Still for that read-out and setting: for “BAIAPL1_(392–407), wild‐type (from UniProt Q9UHR4 392-407) (peptide)” the value was 1.29 µM.
For “CDC25A_(114–125), phosphomimetic (E) (from UniProt P30304 114-125) (peptide)”, in the assay with KPNA4 ARM (human), the KD, major pocket is 0.75 µM and the KD, minor pocket is 2.3 µM.
On to “CDC25A_(114–125), wild‐type (from UniProt P30304 114-125) (peptide)”, for which, in the assay with KPNA4 ARM (human), the KD, major pocket was 8.8 µM and the KD, minor pocket is 0.2 µM.
Consider “CDC25C_(30–44), phosphomimetic (E) (from UniProt P30307 30-44) (peptide)”, for which the Kd with SNX27 PDZ (human) was 680 µM.
The same measure, in the same setting: next, “CDC25C_(30–44), phosphorylated (pS) (from UniProt P30307 30-44) (peptide)”: 395 µM.
In the case of “CDC25C_(30–44), wild‐type (from UniProt P30307 30-44) (peptide)”, the Kd in the assay with SNX27 PDZ (human) is 111 µM.
On the same count and under the same terms, for “DAXX_(606–616), phosphomimetic (E) (from UniProt Q9UER7 606-616) (peptide)” the value was 23 µM; for “DAXX_(606–616), phosphorylated (pS) (from UniProt Q9UER7 606-616) (peptide)”, 96 µM; for “DAXX_(606–616), wild‐type (from UniProt Q9UER7 606-616) (peptide)”, 300 µM.
For “DHX38_(260–275), phosphorylated (pS) (from UniProt Q92620 260-275) (peptide)”, the dissociation constant Kd with RANBP2 RanBD4 (human) was 167 µM.
With “DHX38_(260–275), wild‐type (from UniProt Q92620 260-275) (peptide)”, in the assay with RANBP2 RanBD4 (human), the equilibrium dissociation constant (Kd) is 1500 µM.
For “DLGAP4_(907–922), phosphomimetic (E) (from UniProt Q9Y2H0 907-922) (peptide)”, the Kd with GABARAPL2 (human) is 260 µM.
Take “DLGAP4_(907–922), phosphorylated (pS) (from UniProt Q9Y2H0 907-922) (peptide)”: the dissociation constant (Kd) with GABARAPL2 (human) was determined as 150 µM.
Still for that read-out and setting: for “DLGAP4_(907–922), wild‐type (from UniProt Q9Y2H0 907-922) (peptide)” the value was 174 µM.
Consider “FOXK1_(212–227), phosphomimetic (E) (from UniProt P85037 212-227) (peptide)”, for which the Kd in assay [1] was 13 µM.
“FOXK1_(212–227), phosphorylated (pS) (from UniProt P85037 212-227) (peptide)”: the dissociation constant (Kd) in assay [1] is 13 µM.
Same read-out and setting: next, “FOXK1_(212–227), wild‐type (from UniProt P85037 212-227) (peptide)”: 25 µM.
Consider “GJA1_(269–283), phosphomimetic (E) (from UniProt P17302 269-283) (peptide)”, for which the Kd with TSG101 UEV (human) was 115 µM.
Same read-out and setting: for “GJA1_(269–283), phosphorylated (pS) (from UniProt P17302 269-283) (peptide)” the value was 209 µM; for “GJA1_(269–283), wild‐type (from UniProt P17302 269-283) (peptide)”, 232 µM.
Consider “INTS6_(145–159), phosphomimetic (E) (from UniProt Q9UL03 145-159) (peptide)”, for which the Kd with RANBP2 RanBD4 (human) was 1080 µM.
On the same count and under the same terms, next, “INTS6_(145–159), phosphorylated (pS) (from UniProt Q9UL03 145-159) (peptide)”: 733 µM; “INTS6_(145–159), wild‐type (from UniProt Q9UL03 145-159) (peptide)”: 334 µM.
In the case of “JUN_(59–73), phosphorylated (pS) (from UniProt P05412 59-73) (peptide)”, the Kd with GGA1 VHS (human) was 1900 µM.
With “JUN_(59–73), wild‐type (from UniProt P05412 59-73) (peptide)”, the Kd in the assay with GGA1 VHS (human) was 470 µM.
“OTUD5_(507–522), phosphomimetic (E) (from UniProt Q96G74 507-522) (peptide)”: the Kd in assay [1] is 88 µM.
On the same count and under the same terms, next, “OTUD5_(507–522), phosphorylated (pS) (from UniProt Q96G74 507-522) (peptide)”: 116 µM; “OTUD5_(507–522), wild‐type (from UniProt Q96G74 507-522) (peptide)”: 68 µM.
Regarding “PCBP1_(179–194), phosphomimetic (E) (from UniProt Q15365 179-194) (peptide)”, the Kd in the assay with AP2 μ2 (human) was 2.05 µM.
For “PCBP1_(179–194), phosphorylated (pS) (from UniProt Q15365 179-194) (peptide)”, the Kd with AP2 μ2 (human) was 0.67 µM.
The same measure, in the same setting: for “PCBP1_(179–194), wild‐type (from UniProt Q15365 179-194) (peptide)” the value was 3.7 µM.
For the substance “PDCD6IP_(711–725), wild‐type (from UniProt Q8WUM4 711-725) (peptide)”, the Kd in the assay with TSG101 UEV (human) was 16 µM.
Still for that read-out and setting: for “PIP4P2_(17–32), phosphomimetic (E) (from UniProt Q8N4L2 17-32) (peptide)” the value was 18 µM; for “PIP4P2_(17–32), phosphorylated (pS) (from UniProt Q8N4L2 17-32) (peptide)”, 16 µM.
“PIP4P2_(17–32), wild‐type (from UniProt Q8N4L2 17-32) (peptide)”: the Kd with TSG101 UEV (human) was 14 µM.
Consider “RANBP3_(114–129), phosphomimetic (E) at p + 5 (from UniProt Q9H6Z4 114-129) (peptide)”, for which, in the assay with KPNA4 ARM (human), the KD, major pocket was 0.8 µM and the KD, minor pocket was 61 µM.
With “RANBP3_(114–129), phosphomimetic (E) at p + 6 (from UniProt Q9H6Z4 114-129) (peptide)”, in the assay with KPNA4 ARM (human), the KD, major pocket is 0.14 µM and the KD, minor pocket is 80 µM.
The like results for “RANBP3_(114–129), phosphorylated at p + 5 (from UniProt Q9H6Z4 114-129) (peptide)” were, in that order, 1.13 µM and 167 µM.
Regarding “RANBP3_(114–129), phosphorylated at p + 6 (from UniProt Q9H6Z4 114-129) (peptide)”, in the assay with KPNA4 ARM (human), the KD, major pocket is 0.22 µM and the KD, minor pocket was 20 µM.
For the substance “RANBP3_(114–129), wild‐type (from UniProt Q9H6Z4 114-129) (peptide)”, in the assay with KPNA4 ARM (human), the KD, major pocket was 0.15 µM and the KD, minor pocket was 68 µM.
For the substance “RNF11_(6–21), phosphomimetic (E) (from UniProt Q9Y3C5 6-21) (peptide)”, the dissociation constant (Kd) with GGA1 VHS (human) is 1000 µM.
Still for that read-out and setting: for “RNF11_(6–21), phosphorylated (pS) (from UniProt Q9Y3C5 6-21) (peptide)” the value was 31 µM.
Same read-out and setting: for “RNF11_(6–21), wild‐type (from UniProt Q9Y3C5 6-21) (peptide)” the value was 420 µM.
Regarding “SQSTM1_(258–272), phosphomimetic (E) (from UniProt Q13501 258-272) (peptide)”, in the assay with KPNA4 ARM (human), the KD, major pocket is 5.3 µM and the KD, minor pocket is 41 µM.
The like results for “SQSTM1_(258–272), phosphorylated (pS) (from UniProt Q13501 258-272) (peptide)” were, in that order, 50 µM and 248 µM.
For “SQSTM1_(258–272), wild‐type (from UniProt Q13501 258-272) (peptide)”, in the assay with KPNA4 ARM (human), the KD, major pocket is 0.24 µM and the KD, minor pocket was 14 µM.
With “TPD52L2_(91–106), phosphorylated (pS) (from UniProt O43399 91-106) (peptide)”, the Kd with MAP1LC3B (human) was 61 µM.
As for “TPD52L2_(91–106), wild‐type (from UniProt O43399 91-106) (peptide)”, the equilibrium dissociation constant (Kd) with MAP1LC3B (human) is 760 µM.
As for “pS116 CDC25A_(114–125) (from UniProt P30304 114-125) (peptide)”, in the assay with KPNA4 ARM (human), the KD, major pocket is 0.63 µM and the KD, minor pocket is 2.8 µM.
